Tests used:
[1] = target: recombinant human periostin (human) (UniProt Q15063); test: ELISA, human periostin coated, biotinylated tenascin C titrated, Avidin-HRP detection
[2] = target: recombinant human periostin (human) (UniProt Q15063); test: ELISA, human periostin coated, biotinylated collagen type I titrated, Avidin-HRP detection

Sequence of recombinant human periostin (human) (Q15063 22-836 limits assumed): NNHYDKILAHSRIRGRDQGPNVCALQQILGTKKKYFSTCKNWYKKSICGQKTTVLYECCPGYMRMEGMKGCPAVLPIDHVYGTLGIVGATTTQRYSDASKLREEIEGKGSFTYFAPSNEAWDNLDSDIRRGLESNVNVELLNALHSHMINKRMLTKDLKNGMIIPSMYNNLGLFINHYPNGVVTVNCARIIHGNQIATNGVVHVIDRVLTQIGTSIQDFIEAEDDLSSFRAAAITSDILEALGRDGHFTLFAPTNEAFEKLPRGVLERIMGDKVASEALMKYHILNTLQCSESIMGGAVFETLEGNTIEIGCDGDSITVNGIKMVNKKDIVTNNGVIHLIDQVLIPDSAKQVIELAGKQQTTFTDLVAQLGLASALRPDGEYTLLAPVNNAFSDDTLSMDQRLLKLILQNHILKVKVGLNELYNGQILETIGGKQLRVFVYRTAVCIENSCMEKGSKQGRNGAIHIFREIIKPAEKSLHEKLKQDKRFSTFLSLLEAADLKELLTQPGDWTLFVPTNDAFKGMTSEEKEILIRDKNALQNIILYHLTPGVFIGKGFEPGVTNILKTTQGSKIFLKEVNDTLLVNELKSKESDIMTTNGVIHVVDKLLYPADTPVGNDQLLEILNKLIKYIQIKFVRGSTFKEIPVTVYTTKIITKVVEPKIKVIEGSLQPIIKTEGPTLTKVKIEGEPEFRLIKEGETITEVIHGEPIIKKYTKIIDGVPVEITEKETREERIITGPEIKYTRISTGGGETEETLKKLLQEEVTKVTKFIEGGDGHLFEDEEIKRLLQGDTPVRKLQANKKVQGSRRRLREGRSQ

Row | EC80 [1] [nM] | EC80 [2] [nM] | Substance
1 | 0.9 | – | recombinant human tenascin C (from UniProt P24821 23-625)
2 | – | 100 | human collagen type I (from UniProt P02452 162-1218; P08123 80-1119)

Reference: patent US20220010003A1
